{"source": "paper PMC13429693", "about": "“Disease-associated genetic variants can cause missense effects in tissue-specific protein isoforms” (Nature Communications, 2026)", "proteins": {"B1": {"name": "DPP9-short (reference DPP9) (Homo sapiens) (protein)", "chain": "MATTGTPTADRGDAAATDDPAARFQVQKHSWDGLRSIIHGSRKYSGLIVNKAPHDFQFVQKTDESGPHSHRLYYLGMPYGSRENSLLYSEIPKKVRKEALLLLSWKQMLDHFQATPHHGVYSREEELLRERKRLGVFGITSYDFHSESGLFLFQASNSLFHCRDGGKNGFMVSPMKPLEIKTQCSGPRMDPKICPADPAFFSFINNSDLWVANIETGEERRLTFCHQGLSNVLDDPKSAGVATFVIQEEFDRFTGYWWCPTASWEGSEGLKTLRILYEEVDESEVEVIHVPSPALEERKTDSYRYPRTGSKNPKIALKLAEFQTDSQGKIVSTQEKELVQPFSSLFPKVEYIARAGWTRDGKYAWAMFLDRPQQWLQLVLLPPALFIPSTENEEQRLASARAVPRNVQPYVVYEEVTNVWINVHDIFYPFPQSEGEDELCFLRANECKTGFCHLYKVTAVLKSQGYDWSEPFSPGEDEFKCPIKEEIALTSGEWEVLARHGSKIWVNEETKLVYFQGTKDTPLEHHLYVVSYEAAGEIVRLTTPGFSHSCSMSQNFDMFVSHYSSVSTPPCVHVYKLSGPDDDPLHKQPRFWASMMEAASCPPDYVPPEIFHFHTRSDVRLYGMIYKPHALQPGKKHPTVLFVYGGPQVQLVNNSFKGIKYLRLNTLASLGYAVVVIDGRGSCQRGLRFEGALKNQMGQVEIEDQVEGLQFVAEKYGFIDLSRVAIHGWSYGGFLSLMGLIHKPQVFKVAIAGAPVTVWMAYDTGYTERYMDVPENNQHGYEAGSVALHVEKLPNEPNRLLILHGFLDENVHFFHTNFLVSQLIRAGKPYQLQIYPNERHSIRCPESGEHYEVTLLHFLQEYL", "notes": "863 aa short isoform amplified from H358 cDNA or in-house plasmids; overexpressed in A549 cells, whole cell lysate; dimer"}}, "substrate": "Cc1cc(=O)oc2cc(NC(=O)[C@@H]3CCCN3C(=O)[C@@H](N)C(C)C)ccc12", "test": "AMC release kinetics, allosteric sigmoidal fit", "type": "cell-based, Homo sapiens", "conditions": "A549 overexpression lysate; […] sitagliptin to exclude DPP4", "source_text": "AMC release kinetics, allosteric sigmoidal fit on DPP9-short (reference DPP9) | Enzyme kinetics for DPP9 reference and AFE isoforms"}
{"protein": "B1", "values": [{"measurement": "K0.5", "value": "4.411 ± 0.752", "unit": "µM"}, {"measurement": "Vmax", "value": 2.24, "unit": "µmol/min/mg"}]}
